The results in this text go back to US20260151521A1.

The target of test [1] is human PD-L1 (full-length, expressed on cells) (human) (UniProt Q9NZQ7). The test is described as follows: flow cytometry, ex vivo LOX-IMVI tumor cells (Tumor 2) ~3 weeks post implantation in nude mice, antibody at 20 ug/mL.
The target is the same in test [2]. The test can be described thus: flow cytometry, dose titration on LOX-IMVI and MC38-cOVA/eGFP-mPD-L1-/-hPD-L1Tg cells with or without IFNgamma. A general note: Flow cytometry measures light scatter and fluorescence of single cells or particles in a stream.
Test [3] has the same target. The test can be described thus: flow cytometry, dose titration of staining on LOX-IMVI cells treated overnight with 100 ng/mL hIFNγ.
The target is the same in test [4]. The test is described as follows: flow cytometry, ex vivo MC38-cOVA/eGFP-mPD-L1-/-hPD-L1Tg tumor cells (Tumor 1) ~3 weeks post implantation in nude mice, antibody at 20 ug/mL.
The target is the same in test [5]. The test is described as follows: flow cytometry, ex vivo MC38-cOVA/eGFP-mPD-L1-/-hPD-L1Tg tumor cells (Tumor 2) ~3 weeks post implantation in nude mice, antibody at 20 ug/mL.
Test [6] has the same target. The test can be described thus: flow cytometry, dose titration of staining on untreated LOX-IMVI cells.
For test [7] the target is unchanged. The test can be described thus: flow cytometry, ex vivo LOX-IMVI tumor cells (Tumor 1) ~3 weeks post implantation in nude mice, antibody at 20 ug/mL.
Test [8] shares this target. The test is described as follows: flow cytometry, dose titration of staining on MC38-cOVA/eGFP-mPD-L1-/-hPD-L1Tg cells treated overnight with 100 ng/mL mIFNγ.
Test [9] has the same target. The test can be described thus: flow cytometry, dose titration of staining on untreated MC38-cOVA/eGFP-mPD-L1-/-hPD-L1Tg cells.
The target is the same in test [10]. The test is described as follows: immunoreactivity, Study 3: 20 ng 89Zr antibody on 15x10^6 MC38-cOVA/eGFP-mPD-L1-/-hPD-L1Tg cells, gamma counter.
The target is the same in test [11]. The test is described as follows: immunoreactivity, Study 1: MC38-cOVA/eGFP-mPD-L1-/-hPD-L1Tg cells, cell-bound activity against standards.
Test [12] has the same target. The test is described as follows: immunoreactivity on MC38/mPD-L1-/-/hPD-L1 cells.
Test [13] shares this target. The test can be described thus: immunoreactivity, Study 1: 20 ng 89Zr antibody on 15x10^6 MC38-cOVA/eGFP-mPD-L1-/-hPD-L1Tg cells, gamma counter.
Test [14] has the same target. The test is described as follows: immunoreactivity, Study 3: LOX-IMVI cells (endogenous human PD-L1), cell-bound activity against standards.
Test [15] has the same target. The test can be described thus: immunoreactivity, Study 3: 20 ng 89Zr antibody on 30x10^6 LOX-IMVI cells (endogenous human PD-L1), gamma counter.
Test [16] has the same target. The test is described as follows: immunoreactivity, Study 3: MC38-cOVA/eGFP-mPD-L1-/-hPD-L1Tg cells, cell-bound activity against standards.

UniProt Q9NZQ7, sequence (Q9NZQ7 19-290): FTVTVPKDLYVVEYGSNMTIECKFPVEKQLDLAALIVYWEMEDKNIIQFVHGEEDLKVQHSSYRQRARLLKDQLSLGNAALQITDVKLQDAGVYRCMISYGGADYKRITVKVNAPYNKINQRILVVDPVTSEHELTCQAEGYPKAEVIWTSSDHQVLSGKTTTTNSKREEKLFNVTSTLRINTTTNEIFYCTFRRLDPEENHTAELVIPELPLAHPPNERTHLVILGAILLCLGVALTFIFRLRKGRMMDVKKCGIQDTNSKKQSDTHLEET

Regarding “fluorochrome directly conjugated anti-human PD-L1 antibody (eBioscience, clone MIH1)”, the Mean fluorescence intensity in [1] is 12100; in [4], 49600; in test [5], 51400; in test [7] it was 8480. In addition, in test [2], the antibody concentration at which median fluorescence intensity reached the plateau is 150 nM. Moreover, the concentration for a half-maximal effect (EC50 (read off the curve)) (usually the concentration giving half of the maximal effect) amounted to 20 nM in test [3], 20 nM in test [6], 30 nM in test [8] and 30 nM in test [9].
On to “89Zr labeled DFO-conjugated isotype control antibody”, for which the cell pellet activity in test [10] worked out at 68; in test [13], 29.6; in test [15] it was 65.4. For the same substance, the Percent IR (immunoreactivity) in test [11] was 0.5%; in [14], 0.7%; in test [16] it was 0.7%. In addition, the Immunoreactivity in [12] amounted to 8.8%.
